The target in this assay is TNFRSF9, Q07011. The experiment in a line: Kd (SPR).

Residue numbers refer to the chain shown, from its start.

From the FLAb antibody collection (doi:10.1101/2023.12.08.570889) come the findings set out here.

B1: unnamed (protein)
chain 1: EVQLVQSGAEVKKPGESLRISCKGSGYSFSTYWISWVRQMPGKGLEWMGKIYPGDSYTNYSPSFQGQVTISADKSISTAYLQWSSLKASDTAMYYCTRGSGLFDYWGQGTLVTVSS
chain 2: SYELTQPPSVSVSPGQTASITCSGDNIGDQYAHWYQQKPGQSPVLVIYQDKNRPSGIPERFSGSNSGNTATLTISGTQAMDEADYYCATYTGFGSLAVFGGGTKLTVL
The term Kd denotes the concentration at which binding is half-saturated. Low values mean higher affinity, high ones lower affinity. Take B1: the Kd was 225 nM.

B2: unnamed (protein)
chain 1: B1 chain 1 with S100V, L102I
chain 2: B1 chain 2
B2: the dissociation constant (Kd) was 92.3 nM.

B3: unnamed (protein)
chain 1: B1 chain 1 with T97A, S100T
chain 2: B1 chain 2
On to B3, for which the Kd amounted to 95.6 nM.

B4: unnamed (protein)
chain 1: B1 chain 1 with T97A, S100I
chain 2: B1 chain 2
Regarding B4, the Kd stood at 175 nM.

B5: unnamed (protein)
chain 1: B1 chain 1 with S100Y, L102V
chain 2: B1 chain 2
B5 yielded a Kd of 96.2 nM. Compared with the last molecule, the Kd is about 1.8-fold lower.

B6: unnamed (protein)
chain 1: B1 chain 1 with T97S, S100Y, L102V
chain 2: B1 chain 2
In turn, B6 came in with a Kd of 130 nM.

B7: unnamed (protein)
chain 1: B1 chain 1 with T97A, S100W, L102V
chain 2: B1 chain 2
For B7, the Kd was determined as 122 nM.

B8: unnamed (protein)
chain 1: B1 chain 1 with T97A, S100I, L102I
chain 2: B1 chain 2
On to B8, for which the Kd was 128 nM. The Kd values of the last two molecules are within 1.5-fold of each other.

B9: unnamed (protein)
chain 1: B1 chain 1 with T97A, S100V, L102I
chain 2: B1 chain 2
For the molecule B9, the Kd turned out to be 158 nM. The Kd values of the last two molecules are within 1.5-fold of each other.

B10: unnamed (protein)
chain 1: B1 chain 1 with T97A, S100V
chain 2: B1 chain 2
B10 returned a Kd of 153 nM.
